Paper PMC7352912

Target: F-actin of ghost muscle fibres (rabbit (endogenous in m. psoas fibres)) (UniProt P68135)
Experiment: fluorescence intensity of labelled proteins bound in ghost muscle fibres; actin-Tpm-S1 complexes in ghost fibres; rigor (no nucleotide) or MgADP; with MgATP the ratio of S1 to actin was reduced
Conditions: for stoichiometry N: scale: actin per tropomyosin

Sequence of recombinant wild-type γ-tropomyosin (Tpm3.12) (natural protein) (Q5KR47 whole entry): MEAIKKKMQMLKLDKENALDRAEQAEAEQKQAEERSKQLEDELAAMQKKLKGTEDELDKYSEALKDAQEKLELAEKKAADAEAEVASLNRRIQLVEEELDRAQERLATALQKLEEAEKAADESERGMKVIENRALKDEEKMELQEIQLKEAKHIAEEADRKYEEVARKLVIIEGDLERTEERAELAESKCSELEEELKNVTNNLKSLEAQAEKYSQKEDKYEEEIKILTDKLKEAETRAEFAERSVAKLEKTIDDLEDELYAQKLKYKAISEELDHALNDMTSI
Sequence of myosin subfragment-1 (P02602 whole entry, looked up, the tested form may be a part): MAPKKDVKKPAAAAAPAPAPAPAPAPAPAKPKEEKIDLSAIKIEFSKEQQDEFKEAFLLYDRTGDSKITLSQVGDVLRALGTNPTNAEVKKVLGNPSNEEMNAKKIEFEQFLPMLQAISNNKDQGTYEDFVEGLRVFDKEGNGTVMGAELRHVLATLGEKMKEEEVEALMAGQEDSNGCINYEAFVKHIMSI

| stoichiometry N | stoichiometry N (actin per S1 (molar ratio 1:2.4)) | Substance |
| --- | --- | --- |
| 7 | – | recombinant wild-type γ-tropomyosin (Tpm3.12) (natural protein) |
| – | 2.4 | myosin subfragment-1 (from UniProt P02602 1-192) (complex) |
| 7 | – | E173A mutant γ-tropomyosin (Tpm3.12) (natural protein) |
